Reference: paper PMC7948397, “A novel soluble complement receptor 1 fragment with enhanced therapeutic potential” (The Journal of Biological Chemistry, 2020)

What was measured:
plasma-derived human C3b = target: T1, plasma-derived human C3b (human, UniProt P01024 23-667; P01024 749-1663); experiment: SPR; His-tagged CSL040 or HuCR1(1971) captured on a Ni-NTA chip to 75-100 RU, C3b or C4b injected as analyte; Biacore T200, 37 °C; 10 mM Hepes, 150 mM NaCl, 0.1% bovine serum albumin, pH 7.3; 1:1 model with a term for mass transport; conditions: both partners purified
T1 construct: human complement C3, beta chain; human complement C3b, alpha' chain (C3 alpha chain without C3a); source: bought: Complement Technology, plasma-derived

[1] = target: T2, CR1 (soluble analyte of the reverse SPR experiment; construct not named) (human, UniProt P17927 42-1971); experiment: SPR; reverse format: C3b or C4b immobilised by amine coupling (230 RU, only 20% active), CR1 as analyte; apparent affinities; data not shown; conditions: both partners purified
T2 construct: human complement receptor 1, soluble
T2 sequence (P17927 42-1971): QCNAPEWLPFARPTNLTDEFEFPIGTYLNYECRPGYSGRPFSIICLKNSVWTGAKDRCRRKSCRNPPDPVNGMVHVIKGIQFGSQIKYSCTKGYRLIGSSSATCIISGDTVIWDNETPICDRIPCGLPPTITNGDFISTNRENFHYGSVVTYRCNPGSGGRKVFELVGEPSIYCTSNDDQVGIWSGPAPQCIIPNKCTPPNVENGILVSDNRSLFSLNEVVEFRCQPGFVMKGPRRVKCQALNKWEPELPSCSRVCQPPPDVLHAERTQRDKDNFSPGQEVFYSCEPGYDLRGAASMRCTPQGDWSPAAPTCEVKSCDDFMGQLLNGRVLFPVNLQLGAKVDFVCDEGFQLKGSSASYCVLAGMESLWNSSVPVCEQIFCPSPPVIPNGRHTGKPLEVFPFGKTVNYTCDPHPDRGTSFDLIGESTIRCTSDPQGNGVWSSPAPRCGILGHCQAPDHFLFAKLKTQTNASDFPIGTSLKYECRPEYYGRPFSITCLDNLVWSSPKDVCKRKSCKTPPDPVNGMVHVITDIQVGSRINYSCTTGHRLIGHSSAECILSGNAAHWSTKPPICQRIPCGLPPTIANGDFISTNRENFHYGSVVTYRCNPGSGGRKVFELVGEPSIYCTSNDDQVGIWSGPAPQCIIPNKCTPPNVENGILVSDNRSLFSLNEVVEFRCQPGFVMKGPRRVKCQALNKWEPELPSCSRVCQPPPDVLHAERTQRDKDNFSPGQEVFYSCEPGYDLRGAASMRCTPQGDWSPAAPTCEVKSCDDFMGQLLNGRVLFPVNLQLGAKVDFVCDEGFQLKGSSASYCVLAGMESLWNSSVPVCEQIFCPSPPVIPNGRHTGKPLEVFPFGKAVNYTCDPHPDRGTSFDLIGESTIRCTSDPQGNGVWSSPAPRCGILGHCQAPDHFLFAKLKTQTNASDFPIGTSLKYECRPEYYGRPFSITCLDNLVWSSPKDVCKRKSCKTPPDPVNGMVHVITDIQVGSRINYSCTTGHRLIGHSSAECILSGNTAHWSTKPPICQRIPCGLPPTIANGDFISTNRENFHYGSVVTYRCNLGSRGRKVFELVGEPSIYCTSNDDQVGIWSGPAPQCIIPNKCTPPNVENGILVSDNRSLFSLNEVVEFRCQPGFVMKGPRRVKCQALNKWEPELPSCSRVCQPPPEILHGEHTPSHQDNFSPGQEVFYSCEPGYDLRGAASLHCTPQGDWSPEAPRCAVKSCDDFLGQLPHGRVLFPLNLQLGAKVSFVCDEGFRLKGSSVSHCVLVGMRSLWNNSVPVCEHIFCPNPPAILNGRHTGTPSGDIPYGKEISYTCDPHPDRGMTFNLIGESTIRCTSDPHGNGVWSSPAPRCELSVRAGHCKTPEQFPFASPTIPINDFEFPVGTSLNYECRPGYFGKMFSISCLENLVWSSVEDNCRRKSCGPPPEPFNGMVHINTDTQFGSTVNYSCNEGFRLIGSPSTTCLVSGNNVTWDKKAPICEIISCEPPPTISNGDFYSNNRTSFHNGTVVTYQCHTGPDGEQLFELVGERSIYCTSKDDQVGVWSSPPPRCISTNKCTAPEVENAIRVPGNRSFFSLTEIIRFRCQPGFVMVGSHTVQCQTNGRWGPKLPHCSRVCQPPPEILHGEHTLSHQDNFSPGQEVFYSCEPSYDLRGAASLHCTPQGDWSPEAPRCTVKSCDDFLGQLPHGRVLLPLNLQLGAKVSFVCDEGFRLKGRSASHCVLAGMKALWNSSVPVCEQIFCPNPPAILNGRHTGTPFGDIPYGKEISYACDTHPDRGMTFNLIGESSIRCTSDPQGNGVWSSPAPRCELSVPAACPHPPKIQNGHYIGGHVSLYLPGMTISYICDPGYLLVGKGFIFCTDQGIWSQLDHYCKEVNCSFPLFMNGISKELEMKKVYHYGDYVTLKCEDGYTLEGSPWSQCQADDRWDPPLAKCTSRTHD

T1 sequence (P01024 23-667, chain 1 of 2): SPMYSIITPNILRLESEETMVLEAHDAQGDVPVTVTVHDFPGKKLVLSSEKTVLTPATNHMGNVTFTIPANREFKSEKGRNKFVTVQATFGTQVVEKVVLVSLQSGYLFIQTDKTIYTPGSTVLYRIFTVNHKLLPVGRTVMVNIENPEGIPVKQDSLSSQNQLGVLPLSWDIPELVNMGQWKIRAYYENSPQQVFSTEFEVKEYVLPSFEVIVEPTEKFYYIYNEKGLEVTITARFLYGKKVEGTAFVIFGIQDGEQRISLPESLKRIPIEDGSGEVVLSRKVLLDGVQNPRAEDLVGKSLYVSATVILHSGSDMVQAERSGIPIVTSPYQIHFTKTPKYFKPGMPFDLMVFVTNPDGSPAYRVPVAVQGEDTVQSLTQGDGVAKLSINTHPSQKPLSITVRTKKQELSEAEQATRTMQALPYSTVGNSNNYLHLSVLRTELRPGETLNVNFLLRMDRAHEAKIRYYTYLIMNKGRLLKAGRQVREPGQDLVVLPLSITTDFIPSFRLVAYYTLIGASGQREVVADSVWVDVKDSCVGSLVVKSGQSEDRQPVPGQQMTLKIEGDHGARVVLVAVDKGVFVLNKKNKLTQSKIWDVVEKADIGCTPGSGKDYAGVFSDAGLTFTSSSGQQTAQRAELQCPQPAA
T1 sequence (P01024 749-1663, chain 2 of 2): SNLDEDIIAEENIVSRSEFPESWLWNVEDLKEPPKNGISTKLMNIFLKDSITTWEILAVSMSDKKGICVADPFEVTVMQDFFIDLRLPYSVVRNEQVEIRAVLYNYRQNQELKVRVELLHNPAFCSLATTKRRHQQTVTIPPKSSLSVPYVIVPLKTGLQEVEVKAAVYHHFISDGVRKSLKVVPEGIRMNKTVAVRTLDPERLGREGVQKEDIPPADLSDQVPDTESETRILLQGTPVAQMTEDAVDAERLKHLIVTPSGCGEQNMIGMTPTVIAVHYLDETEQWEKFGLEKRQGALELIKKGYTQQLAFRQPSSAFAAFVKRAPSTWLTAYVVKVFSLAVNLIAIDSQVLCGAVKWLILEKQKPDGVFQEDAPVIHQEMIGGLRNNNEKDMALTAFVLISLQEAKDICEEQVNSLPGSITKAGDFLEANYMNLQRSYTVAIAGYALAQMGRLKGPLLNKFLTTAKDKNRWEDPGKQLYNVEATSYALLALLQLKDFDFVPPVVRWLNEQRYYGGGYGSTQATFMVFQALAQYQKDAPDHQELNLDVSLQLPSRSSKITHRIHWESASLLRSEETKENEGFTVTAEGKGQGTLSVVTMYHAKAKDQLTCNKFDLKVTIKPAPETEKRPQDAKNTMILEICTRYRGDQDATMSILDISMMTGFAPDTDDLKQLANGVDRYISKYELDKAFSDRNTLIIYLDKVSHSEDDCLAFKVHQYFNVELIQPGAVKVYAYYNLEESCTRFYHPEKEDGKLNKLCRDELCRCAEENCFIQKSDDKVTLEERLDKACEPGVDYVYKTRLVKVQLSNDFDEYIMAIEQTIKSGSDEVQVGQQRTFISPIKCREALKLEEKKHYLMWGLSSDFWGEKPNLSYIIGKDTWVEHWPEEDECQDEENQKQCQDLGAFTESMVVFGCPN

| Binder | Kd (plasma-derived human C3b) | koff (plasma-derived human C3b) | kon (plasma-derived human C3b) | Kd [1] |
| --- | --- | --- | --- | --- |
| HuCR1(1392)/CSL040, soluble human complement receptor 1 truncated at amino acid 1392 (LHR-A, LHR-B and LHR-C) (receptor, signal peptide in the construct; human complement receptor 1 (HuCR1, CD35), endogenous signal peptide, ends at amino acid 1392 (LHR-A, LHR-B, LHR-C; lacks LHR-D); amino acid numbering based on Met + 1; cDNA GenBank NP_000564, codon optimised; N-glycosylated, highly sialylated; A version without the His-tag was also made, but the SPR used the His-tagged protein; also called LHR-ABC; not shown: …) not shown | 265 nM | 0.00654 s⁻¹ | 24800 M⁻¹ s⁻¹ | – |
| plasma-derived human C4b (ligand, human complement C4, beta chain; human complement C4b, alpha' chain (C4 alpha chain without C4a); human complement C4, gamma chain; Plasma-derived C4b is likely a mixture of C4A and C4B forms; source: bought: Complement Technology, plasma-derived; copies: + +) chain 1: KPRLLLFSPSVVHLGVPLSVGVQLQDVPRGQVVKGSVFLRNPSRNNVPCSPKVDFTLSSERDFALLSLQVPLKDAKSCGLHQLLRGPEVQLVAHSPWLKDSLSRTTNIQGINLLFSSRRGHLFLQTDQPIYNPGQRVRYRVFALDQKMRPSTDTITVMVENSHGLRVRKKEVYMPSSIFQDDFVIPDISEPGTWKISARFSDGLESNSSTQFEVKKYVLPNFEVKITPGKPYILTVPGHLDEMQLDIQARYIYGKPVQGVAYVRFGLLDEDGKKTFFRGLESQTKLVNGQSHISLSKAEFQDALEKLNMGITDLQGLRLYVAAAIIESPGGEMEEAELTSWYFVSSPFSLDLSKTKRHLVPGAPFLLQALVREMSGSPASGIPVKVSATVSSPGSVPEVQDIQQNTDGSGQVSIPIIIPQTISELQLSVSAGSPHPAIARLTVAAPPSGGPGFLSIERPDSRPPRVGDTLNLNLRAVGSGATFSHYYYMILSRGQIVFMNREPKRTLTSVSVFVDHHLAPSFYFVAFYYHGDHPVANSLRVDVQAGACEGKLELSVDGAKQYRNGESVKLHLETDSLALVALGALDTALYAAGSKSHKPLNMGKVFEAMNSYDLGCGPGGGDSALQVFQAAGLAFSDGDQWTLSRKRLSCPKEKTT chain 2: ALEILQEEDLIDEDDIPVRSFFPENWLWRVETVDRFQILTLWLPDSLTTWEIHGLSLSKTKGLCVATPVQLRVFREFHLHLRLPMSVRRFEQLELRPVLYNYLDKNLTVSVHVSPVEGLCLAGGGGLAQQVLVPAGSARPVAFSVVPTAAAAVSLKVVARGSFEFPVGDAVSKVLQIEKEGAIHREELVYELNPLDHRGRTLEIPGNSDPNMIPDGDFNSYVRVTASDPLDTLGSEGALSPGGVASLLRLPRGCGEQTMIYLAPTLAASRYLDKTEQWSTLPPETKDHAVDLIQKGYMRIQQFRKADGSYAAWLSRDSSTWLTAFVLKVLSLAQEQVGGSPEKLQETSNWLLSQQQADGSFQDPCPVLDRSMQGGLVGNDETVALTAFVTIALHHGLAVFQDEGAEPLKQRVEASISKANSFLGEKASAGLLGAHAAAITAYALTLTKAPVDLLGVAHNNLMAMAQETGDNLYWGSVTGSQSNAVSPTPAPRNPSDPMPQAPALWIETTAYALLHLLLHEGKAEMADQASAWLTRQGSFQGGFRSTQDTVIALDALSAYWIASHTTEERGLNVTLSSTGRNGFKSHALQLNNRQIRGLEEELQFSLGSKINVKVGGNSKGTLKVLRTYNVLDMKNTTCQDLQIEVTVKGHVEYTMEANEDYEDYEYDELPAKDDPDAPLQPVTPLQLFEG chain 3: EAPKVVEEQESRVHYTVCIWRNGKVGLSGMAIADVTLLSGFHALRADLEKLTSLSDRYVSHFETEGPHVLLYFDSVPTSRECVGFEAVQEVPVGLVQPASATLYDYYNPERRCSVFYGAPSKSRLLATLCSAEVCQCAEGKCPRQRRALERGLQDEDGYRMKFACYYPRVEYGFQVKVLREDSRAAFRLFETKITQVLHFTKDVKAAANQMRNFLVRASCRLRLEPGKEYLIMGLDGATYDLEGHPQYLLDSNSWIEEMPSERLCRSTRQRAACAQLNDFLQEYGTQGCQV | – | – | – | ~4900 nM |
